Experiments:
[1] = biological target: turnip mosaic virus (TuMV) isolate YC5 VPg R118H (turnip mosaic virus isolate YC5); assay: two-hybrid
[2] = biological target: turnip mosaic virus (TuMV) isolate YC5 VPg D113G (turnip mosaic virus isolate YC5); assay: two-hybrid

“PYRUVATE ORTHOPHOSPHATE DIKINASE (PPDK) REGULATORY PROTEIN 1 (RP1) (natural protein)” showed a percent stronger binding than VPg^wt [1] of 47.1%.
In the case of “MYOSIN 3 (MYOS3) protein (natural protein)”, the percent stronger binding than VPg^wt [1] was 27.5%.
With “PROLINE RICH MITOTIC CHECKPOINT CONTROL FACTOR (PRCC) (natural protein)” the percent stronger binding than VPg^wt [1] was 22.5%.
With “ROS1-ASSOCIATED HOMEODOMAIN PROTEIN 1 (RHD1) (natural protein)” the percent decrease in binding affinity compared to VPg^wt [2] was 22.6% and the percent increase in binding affinity compared to VPg^wt [1] was 17.4%.
In the case of “ARM-REPEAT SU… PROTEIN (AT5G62580) (natural protein)”, the percent reduction in binding strength compared to VPg^wt [2] was 28.8%.
“FRUCTOKINASE-LIKE 1 (FLN1) protein (natural protein)” showed a percent weaker interaction than with VPg^wt [2] of 36.5% and a percent weaker interaction than with VPg^wt [1] of 36.5%.
Work on “MITOCHONDRIAL GLYCOPROTEIN FAMILY PROTEIN (AT1G15870) (natural protein)” yielded a percent stronger binding than VPg^wt [1] of 36.2%.
“eukaryotic translation initiation factor (iso)4E (natural protein)” was tested, and the percent weaker interaction than with VPg^wt [2] was 90.5% and the percent weaker interaction than with VPg^wt [1] was 90.5%.

Reference: PMC11291303
